The record followed here is the RNAGym collection of RNA variant scans (doi:10.7554/elife.90254).

The chains are these.
B1: LINE1-mini (parent)
chain: GGCAGAGCUCAACACAGCGUGGCAAAGUGGCUGUGGCUAGACUGCC

Variants of B1 are the subject of this data set. The data set is described as follows: self-cleavage, relative activity (ratio to wild type); higher = more cleavage; in vitro, sequencing; the parent is a self-cleaving ribozyme.
As for A4U U43C, the self-cleavage was 0.03.

With G5C G17U, the self-cleavage was 0.04.

As to G5C G17C, the self-cleavage was found to be 0.03.

G5C G17A: the self-cleavage stood at 0.04.

For A4U G22C, the self-cleavage was determined as 0.08.

In the case of A4U G22A, the self-cleavage amounted to 0.16.

Consider A4U G22U, for which the self-cleavage stood at 0.52.

Consider G5C A11G, for which the self-cleavage stood at 0.05.

Take G5C A11C: the self-cleavage was determined as 0.04.

In the case of G5C A11U, the self-cleavage is 0.03.

Regarding G5A A6U, the self-cleavage was determined as 0.12.

On to G5A A6C, for which the self-cleavage was found to be 0.2.

G5A A6G: the self-cleavage was found to be 0.13.

On to G5A A26G, for which the self-cleavage is 0.1.

For G5A A26C, the self-cleavage amounted to 0.18.

In the case of G5A A26U, the self-cleavage came out at 0.19.

For A4U A41G, the self-cleavage was 0.05.

As for A4U A41U, the self-cleavage is 0.12.

Turning to A4U A41C, the self-cleavage is 0.11.

Consider A4U G33U, for which the self-cleavage is 0.12.

For A4U G33A, the self-cleavage stood at 0.07.

Consider A4U G33C, for which the self-cleavage worked out at 0.09.

Turning to G5A A11U, the self-cleavage turned out to be 0.04.

Consider G5A A11C, for which the self-cleavage amounted to 0.03.

Take G5A A11G: the self-cleavage came to 0.03.

For G5A C18A, the self-cleavage was 0.1.

Take G5A C18G: the self-cleavage was 0.09.

For G5A C18U, the self-cleavage amounted to 0.14.

G5C C42U: the self-cleavage came out at 0.05.

Take G5C C42A: the self-cleavage amounted to 0.09.

On to G5C C42G, for which the self-cleavage was 0.46.

As to G5A A16U, the self-cleavage was 0.07.

For G5A A16C, the self-cleavage was 0.1.

As to G5A A16G, the self-cleavage is 0.07.

G5C A24C: the self-cleavage worked out at 0.04.

G5C A24G: the self-cleavage turned out to be 0.06.

On to G5C A24U, for which the self-cleavage was determined as 0.07.

Regarding G5A G36C, the self-cleavage stood at 0.05.

As to G5A G36A, the self-cleavage was found to be 0.28.

For the variant G5A G36U, the self-cleavage turned out to be 0.14.

Consider G5A C8A, for which the self-cleavage came to 0.27.

As for G5A C8G, the self-cleavage was 0.22.

Turning to G5A C8U, the self-cleavage worked out at 0.44.

Take A4U U32A: the self-cleavage amounted to 0.06.

As to A4U U32C, the self-cleavage came out at 0.14.

As to A4U U32G, the self-cleavage is 0.14.

As to G5A G22U, the self-cleavage was 0.14.

Take G5A G22A: the self-cleavage turned out to be 0.18.

Turning to G5A G22C, the self-cleavage came to 0.13.

On to A4U U28A, for which the self-cleavage came out at 0.19.

Consider A4U U28G, for which the self-cleavage turned out to be 0.17.

On to A4U U28C, for which the self-cleavage was 0.32.

On to A4U C23A, for which the self-cleavage came to 0.16.

Consider A4U C23U, for which the self-cleavage was found to be 0.41.

As for A4U C23G, the self-cleavage came to 0.37.

On to A4U C42U, for which the self-cleavage stood at 0.14.

Turning to A4U C42G, the self-cleavage worked out at 0.08.

For the variant A4U C42A, the self-cleavage was determined as 0.11.

In the case of A4U G29A, the self-cleavage is 0.2.

Turning to A4U G29C, the self-cleavage was found to be 0.24.

As to A4U G29U, the self-cleavage came to 0.23.

For G5C G19C, the self-cleavage amounted to 0.08.

For the variant G5C G19U, the self-cleavage was 0.14.

Turning to G5C G19A, the self-cleavage came to 0.14.

With G5C C23U, the self-cleavage was 0.05.

Take G5C C23A: the self-cleavage stood at 0.07.

With G5C C23G, the self-cleavage amounted to 0.04.

For the variant G5A U9G, the self-cleavage was 0.27.

Turning to G5A U9C, the self-cleavage was 0.04.

Consider G5A U9A, for which the self-cleavage was determined as 0.35.

For A4U C45U, the self-cleavage stood at 0.16.

With A4U C45A, the self-cleavage is 0.1.

For the variant A4U C45G, the self-cleavage is 0.15.

As for G5C A12C, the self-cleavage is 0.04.

Take G5C A12G: the self-cleavage was found to be 0.05.

Regarding G5C A12U, the self-cleavage turned out to be 0.05.

G5A A24G: the self-cleavage was 0.23.

On to G5A A24U, for which the self-cleavage stood at 0.11.

For the variant G5A A24C, the self-cleavage was 0.08.

For G5A C15A, the self-cleavage came to 0.1.

Turning to G5A C15G, the self-cleavage was determined as 0.05.

Consider G5A C15U, for which the self-cleavage was found to be 0.11.

Consider A4U C15U, for which the self-cleavage is 0.19.

Take A4U C15G: the self-cleavage was 0.06.

With A4U C15A, the self-cleavage was 0.08.

Consider G5C C18U, for which the self-cleavage stood at 0.03.

Turning to G5C C18G, the self-cleavage was determined as 0.04.

As to G5C C18A, the self-cleavage was determined as 0.05.

On to G5A G27U, for which the self-cleavage was determined as 0.08.

Turning to G5A G27A, the self-cleavage was found to be 0.1.

With G5A G27C, the self-cleavage came out at 0.07.

In the case of G5A C10G, the self-cleavage is 0.03.

As to G5A C10U, the self-cleavage was determined as 0.09.

With G5A C10A, the self-cleavage is 0.04.

For the variant G5A A41C, the self-cleavage came out at 0.06.

As for G5A A41U, the self-cleavage came to 0.08.

Regarding G5A A41G, the self-cleavage was 0.04.

With A4U A14G, the self-cleavage was 0.15.

In the case of A4U A14U, the self-cleavage is 0.1.

Turning to A4U A14C, the self-cleavage came to 0.12.

As for G5C A6C, the self-cleavage is 0.23.

In the case of G5C A6G, the self-cleavage is 0.09.

In the case of G5C A6U, the self-cleavage is 0.06.

Consider A4U U9G, for which the self-cleavage is 0.07.

As for A4U U9C, the self-cleavage came out at 0.07.

A4U U9A: the self-cleavage turned out to be 0.29.

As to A4U C18G, the self-cleavage came out at 0.08.

Consider A4U C18U, for which the self-cleavage is 0.11.

Take A4U C18A: the self-cleavage amounted to 0.07.

For the variant A4U A25G, the self-cleavage came out at 0.08.

Consider A4U A25U, for which the self-cleavage was 0.84.

For the variant A4U A25C, the self-cleavage is 0.08.

A4U A24G: the self-cleavage worked out at 0.26.

Regarding A4U A24U, the self-cleavage is 0.21.

For A4U A24C, the self-cleavage worked out at 0.4.

A4U C8A: the self-cleavage is 0.23.

As for A4U C8G, the self-cleavage stood at 0.09.

With A4U C8U, the self-cleavage was found to be 0.26.

For the variant G5C A25C, the self-cleavage came to 0.05.

For G5C A25G, the self-cleavage amounted to 0.06.

On to G5C A25U, for which the self-cleavage stood at 0.09.

Take G5C A26C: the self-cleavage was determined as 0.06.

As for G5C A26U, the self-cleavage came to 0.06.

For the variant G5C A26G, the self-cleavage came to 0.05.

On to A4U U38C, for which the self-cleavage was 0.17.

In the case of A4U U38A, the self-cleavage amounted to 0.12.

For A4U U38G, the self-cleavage came to 0.03.

For the variant A4U G27C, the self-cleavage came to 0.17.

On to A4U G27A, for which the self-cleavage is 0.19.

Turning to A4U G27U, the self-cleavage amounted to 0.14.

In the case of G5C A39G, the self-cleavage came to 0.07.

Regarding G5C A39C, the self-cleavage came out at 0.07.

As to G5C A39U, the self-cleavage turned out to be 0.06.

On to A4U C46A, for which the self-cleavage is 0.16.

Consider A4U C46G, for which the self-cleavage came to 0.12.

In the case of A4U C46U, the self-cleavage stood at 0.19.

On to G5C A16G, for which the self-cleavage worked out at 0.04.

As to G5C A16U, the self-cleavage was determined as 0.04.

G5C A16C: the self-cleavage came to 0.07.

Turning to G5C G30A, the self-cleavage worked out at 0.02.

With G5C C10A, the self-cleavage is 0.05.

Consider G5C C10U, for which the self-cleavage is 0.04.

Take G5C C10G: the self-cleavage was determined as 0.02.

For the variant A4U G21U, the self-cleavage stood at 0.35.

As to A4U G21C, the self-cleavage is 0.24.

Consider A4U G21A, for which the self-cleavage was found to be 0.48.

As to A4U C37A, the self-cleavage worked out at 0.16.

In the case of A4U C37G, the self-cleavage came out at 0.08.

Consider A4U C37U, for which the self-cleavage was determined as 0.15.

Regarding G5A C37A, the self-cleavage is 0.06.

For the variant G5A C37U, the self-cleavage came out at 0.13.

G5A C37G: the self-cleavage stood at 0.05.

For the variant G5C A14G, the self-cleavage was determined as 0.04.

G5C A14U: the self-cleavage is 0.06.

Take G5C A14C: the self-cleavage is 0.07.

For the variant G5A G17A, the self-cleavage turned out to be 0.08.

For the variant G5A G17C, the self-cleavage amounted to 0.39.

For the variant G5A G17U, the self-cleavage came out at 0.11.

For A4U A39G, the self-cleavage came to 0.07.

With A4U A39C, the self-cleavage came out at 0.27.

For A4U A39U, the self-cleavage is 0.11.

With A4U G17U, the self-cleavage was 0.16.

Consider A4U G17A, for which the self-cleavage is 0.06.

As to A4U G17C, the self-cleavage worked out at 0.06.

With A4U G35U, the self-cleavage is 0.13.

Regarding A4U G35C, the self-cleavage was determined as 0.11.

On to A4U G35A, for which the self-cleavage was determined as 0.14.
